Test results from publication PMC6486907.

Key:
[1] = molecular target: Sau-TBD (large fragment of Staphylococcus aureus Pol I with the thioredoxin-binding domain of bacteriophage T7 DNA polymerase inserted) (Staphylococcus aureus | bacteriophage T7)
[2] = molecular target: Sau-TBD (large fragment of Staphylococcus aureus Pol I with the thioredoxin-binding domain of bacteriophage T7 DNA polymerase inserted) (Staphylococcus aureus | bacteriophage T7); remark: listed apart in the source

average primer extension length of Sau-TBD with thioredoxin, as told in the text (differs from Table 3) [1]: 74.2 nt | microscopic processivity (PI) of Sau-TBD with thioredoxin, as told in the text (differs from Table 3) [1]: 0.986 | DNA polymerase activity of Sau-TBD on primed M13mp18 DNA with 1.5 uM thioredoxin (1316 units/mg protein without thioredoxin) (units/mg protein) [2]: 2860
Substance: thioredoxin from E. coli (TrxA) (from UniProt P0AA25 2-109) (natural protein)
